Assay results as given in patent US20170327597A1.

Target: Z-domain (an engineered analogue of the IgG-binding domain of protein A)
Assay: isothermal titration calorimetry, Z-domain injected into IgG

mmIgG2b-P307T-Q309L-K409R (antibody)
fold tighter binding than mmIgG2b-F405L: 5 fold
